These results are taken from article PMC8472933.

Assay [1] concerns the target Menangle virus P protein C-terminal region, P209-388 (coiled-coil, linker and binding domain) (Menangle virus). Put plainly: AUC.
The target is the same in assay [2]. The assay can be described thus: SEC-MALLS.

For the substance “Menangle virus P protein C-terminal region, P209-388 (coiled-coil, linker and binding domain) (domain or fragment)”, in assay [1], the Kd is 58 nM and the stoichiometry N came out at 4. Moreover, the stoichiometry N in assay [2] is 4.

The term Kd denotes the free concentration of one partner at which half of the binding sites on the other are occupied at equilibrium, for simple one-to-one binding. A low value points to tighter binding. By stoichiometry N is commonly meant a count of units in the complex or per binding partner.
